Experimental data from the MegaScale stability set (Tsuboyama et al. 2023).

B1: 1ZHC (parent)
chain: HEFRDEISVLKANNPHFDKIFEKHNQLDDDIKTAEQQNASDAEVSHMKKQKLKLKDEIHSMIIEYREK

Variants of: B1
Test: folding stability dG (cDNA display proteolysis); higher = more stable
Details: PBS, room temperature

| Variant | folding stability dG [kcal/mol] |
| --- | --- |
| HEFRDEISVLKANNPHFDKIFEKHNQLDDDIKTAEQQNASDAEVSHMKKQKLKLKDEIHSMILEYREK | 1.24 |
| HEFRDEISVLKANNPHFDKIFEKHNQLDDDIKTAEQQNASDAEVSHMKKQKLKLKDEIHSMIHEYREK | 0.728 |
| HEFRDEISVLKANNPHFDKIFEKHNQLDDDIKTAEQQNASDAEVSHMKKQKLKLKDEIHSMIGEYREK | -0.621 |
| HEFRDEISVLKANNPHFDKIFEKHNQLDDDIKTAEQQNASDAEVSHMKKQKLKLKDEIHSMIMEYREK | 1.4 |
| HEFRDEISVLKANNPHFDKIFEKHNQLDDDIKTAEQQNASDAEVSHMKKQKLKLKDEIHSMIAEYREK | 0.8 |
| HEFRDEISVLKANNPHFDKIFEKHNQLDDDIKTAEQQNASDAEVSHMKKQKLKLKDEIHSMIEEYREK | 0.513 |
| HEFRDEISVLKANNPHFDKIFEKHNQLDDDIKTAEQQNASDAEVSHMKKQKLKLKDEIHSMIDEYREK | -0.032 |
| HEFRDEISVLKANNPHFDKIFEKHNQLDDDIKTAEQQNASDAEVSHMKKQKLKLKDEIHSMIKEYREK | 0.899 |
| HEFRDEISVLKANNPHFDKIFEKHNQLDDDIKTAEQQNASDAEVSHMKKQKLKLKDEIHSMICEYREK | 1.17 |
| HEFRDEISVLKANNPHFDKIFEKHNQLDDDIKTAEQQNASDAEVSHMKKQKLKLKDEIHSMIFEYREK | 0.401 |
| HEFRDEISVLKANNPHFDKIFEKHNQLDDDIKTAEQQNASDAEVSHMKKQKLKLKDEWHSMIIEYREK | -0.545 |
| HEFRDEISVLKANNPHFDKIFEKHNQLDDDIKTAEQQNASDAEVSHMKKQKLKLKDEFHSMIIEYREK | 0.304 |
| HEFRDEISVLKANNPHFDKIFEKHNQLDDDIKTAEQQNASDAEVSHMKKQKLKLKDECHSMIIEYREK | 0.015 |
| HEFRDEISVLKANNPHFDKIFEKHNQLDDDIKTAEQQNASDAEVSHMKKQKLKLKDEHHSMIIEYREK | -0.628 |
| HEFRDEISVLKANNPHFDKIFEKHNQLDDDIKTAEQQNASDAEVSHMKKQKLKLKDEVHSMIIEYREK | -0.599 |
| HEFRDEISVLKANNPHFDKIFEKHNQLDDDIKTAEQQNASDAEVSHMKKQKLKLKDERHSMIIEYREK | -0.534 |
| HEFRDEISVLKANNPHFDKIFEKHNQLDDDIKTAEQQNASDAEVSHMKKQKLKLKDELHSMIIEYREK | 0.496 |
| HEFRDEISVLKANNPHFDKIFEKHNQLDDDIKTAEQQNASDAEVSHMKKQKLKLKDEMHSMIIEYREK | 0.19 |
| HEFRDEISVLKANNPHFDKIFEKHNQLDDDIKTAEQQNASDAEVSHMKKQKLKLKDEIHSFIIEYREK | 0.209 |
| HEFRDEISVLKANNPHFDKIFEKHNQLDDDIKTAEQQNASDAEVSHMKKQKLKLKDEIHSCIIEYREK | -0.322 |
| HEFRDEISVLKANNPHFDKIFEKHNQLDDDIKTAEQQNASDAEVSHMKKQKLKLKDEIHSAIIEYREK | -0.996 |
| HEFRDEISVLKANNPHFDKIFEKHNQLDDDIKTAEQQNASDAEVSHMKKQKLKLKDEIHSIIIEYREK | 0.447 |
| HEFRDEISVLKANNPHFDKIFEKHNQLDDDIKTAEQQNASDAEVSHMKKQKLKLKDEIHSYIIEYREK | 0.306 |
| HEFRDEISVLKANNPHFDKIFEKHNQLDDDIKTAEQQNASDAEVSHMKKQKLKLKDEIHSWIIEYREK | -0.462 |
| HEFRDEISVLKANNPHFDKIFEKHNQLDDDIKTAEQQNASDAEVSHMKKQKLKLKDEIHSLIIEYREK | 0.762 |
| HEFRDEISVLKANNPHFDKIFEKHNQLDDDIKTAEQQNASDAEVSHMKKQKLKLKDEIHSHIIEYREK | 0.422 |
| HEFRDEISVLKANNPHFDKIFEKHNQLDDDIKTAEQQNASDAEVSHMKKQKLKLKDKIHSMIIEYREK | 0.212 |

| Variant | folding stability dG [kcal/mol] |
| --- | --- |
| HEFRDEISVLKANNPHFDKIFEKHNQLDDDIKTAEQQNASDAEVSHMKKQKLKLKDRIHSMIIEYREK | -0.034 |
| HEFRDEISVLKANNPHFDKIFEKHNQLDDDIKTAEQQNASDAEVSHMKKQKLKLKDIIHSMIIEYREK | 0.87 |
| HEFRDEISVLKANNPHFDKIFEKHNQLDDDIKTAEQQNASDAEVSHMKKQKLKLKDVIHSMIIEYREK | 0.286 |
| HEFRDEISVLKANNPHFDKIFEKHNQLDDDIKTAEQQNASDAEVSHMKKQKLKLKDTIHSMIIEYREK | 0.674 |
| HEFRDEISVLKANNPHFDKIFEKHNQLDDDIKTAEQQNASDAEVSHMKKQKLKLKDSIHSMIIEYREK | -0.103 |
| HEFRDEISVLKANNPHFDKIFEKHNQLDDDIKTAEQQNASDAEVSHMKKQKLKLKDMIHSMIIEYREK | 1.16 |
| HEFRDEISVLKANNPHFDKIFEKHNQLDDDIKTAEQQNASDAEVSHMKKQKLKLKDWIHSMIIEYREK | 0.602 |
| HEFRDEISVLKANNPHFDKIFEKHNQLDDDIKTAEQQNASDAEVSHMKKQKLKLKDHIHSMIIEYREK | -0.994 |
| HEFRDEISVLKANNPHFDKIFEKHNQLDDDIKTAEQQNASDAEVSHMKKQKLKLKDLIHSMIIEYREK | 0.992 |
| HEFRDEISVLKANNPHFDKIFEKHNQLDDDIKTAEQQNASDAEVSHMKKQKLKLKDYIHSMIIEYREK | 0.52 |
| HEFRDEISVLKANNPHFDKIFEKHNQLDDDIKTAEQQNASDAEVSHMKKQKLKLKDQIHSMIIEYREK | 0.719 |
| HEFRDEISVLKANNPHFDKIFEKHNQLDDDIKTAEQQNASDAEVSHMKKQKLKLKDEINSMIIEYREK | 0.996 |
| HEFRDEISVLKANNPHFDKIFEKHNQLDDDIKTAEQQNASDAEVSHMKKQKLKLKDEIESMIIEYREK | 1.21 |
| HEFRDEISVLKANNPHFDKIFEKHNQLDDDIKTAEQQNASDAEVSHMKKQKLKLKDEITSMIIEYREK | 1.06 |
| HEFRDEISVLKANNPHFDKIFEKHNQLDDDIKTAEQQNASDAEVSHMKKQKLKLKDEIRSMIIEYREK | 1.04 |
| HEFRDEISVLKANNPHFDKIFEKHNQLDDDIKTAEQQNASDAEVSHMKKQKLKLKDEIISMIIEYREK | 1.83 |
| HEFRDEISVLKANNPHFDKIFEKHNQLDDDIKTAEQQNASDAEVSHMKKQKLKLKDEIWSMIIEYREK | 1.83 |
| HEFRDEISVLKANNPHFDKIFEKHNQLDDDIKTAEQQNASDAEVSHMKKQKLKLKDEIQSMIIEYREK | 0.83 |
| HEFRDEISVLKANNPHFDKIFEKHNQLDDDIKTAEQQNASDAEVSHMKKQKLKLKDEIASMIIEYREK | 0.525 |
| HEFRDEISVLKANNPHFDKIFEKHNQLDDDIKTAEQQNASDAEVSHMKKQKLKLKDEIKSMIIEYREK | 0.399 |
| HEFRDEISVLKANNPHFDKIFEKHNQLDDDIKTAEQQNASDAEVSHMKKQKLKLKDEIVSMIIEYREK | 1.3 |
| HEFRDEISVLKANNPHFDKIFEKHNQLDDDIKTAEQQNASDAEVSHMKKQKLKLKDEIFSMIIEYREK | 1.43 |
| HEFRDEISVLKANNPHFDKIFEKHNQLDDDIKTAEQQNASDAEVSHMKKQKLKLKDEIDSMIIEYREK | 1.11 |
| HEFRDEISVLKANNPHFDKIFEKHNQLDDDIKTAEQQNASDAEVSHMKKQKLKLKDEIYSMIIEYREK | 1.61 |
| HEFRDEISVLKANNPHFDKIFEKHNQLDDDIKTAEQQNASDAEVSHMKKQKLKLKDEILSMIIEYREK | 2.03 |
| HEFRDEISVLKANNPHFDKIFEKHNQLDDDIKTAEQQNASDAEVSHMKKQKLKLKDEISSMIIEYREK | 0.624 |
| HEFRDEISVLKANNPHFDKIFEKHNQLDDDIKTAEQQNASDAEVSHMKKQKLKLKDEIMSMIIEYREK | 1.92 |

| Variant | folding stability dG [kcal/mol] |
| --- | --- |
| HEFRDEISVLKANNPHFDKIFEKHNQLDDDIKTAEQQNASDAEVSHMKKQKLKLKDEIHSMHIEYREK | -0.624 |
| HEFRDEISVLKANNPHFDKIFEKHNQLDDDIKTAEQQNASDAEVSHMKKQKLKLKDEIHSMWIEYREK | -0.3 |
| HEFRDEISVLKANNPHFDKIFEKHNQLDDDIKTAEQQNASDAEVSHMKKQKLKLKDEIHSMLIEYREK | 0.874 |
| HEFRDEISVLKANNPHFDKIFEKHNQLDDDIKTAEQQNASDAEVSHMKKQKLKLKDEIHSMFIEYREK | 0.011 |
| HEFRDEISVLKANNPHFDKIFEKHNQLDDDIKTAEQQNASDAEVSHMKKQKLKLKDEIHSMMIEYREK | 0.117 |
| HEFRDEISVLKANNPHFDKIFEKHNQLDDDIKTAEQQNASDAEVSHMKKQKLKLKDEIHSMVIEYREK | 0.282 |
| HEFRDEISVLKANNPHFDKIFEKHNQLDDDIKTAEQQNASDAEVSHMKKQKLKLKDEIHSMCIEYREK | -0.713 |
| HEFRDEISVLKANNPHFDKIFEKHNQLDDDIKTAEQQNASDAEVSHMKKQKLKLKDEIHIMIIEYREK | 0.697 |
| HEFRDEISVLKANNPHFDKIFEKHNQLDDDIKTAEQQNASDAEVSHMKKQKLKLKDEIHNMIIEYREK | 0.933 |
| HEFRDEISVLKANNPHFDKIFEKHNQLDDDIKTAEQQNASDAEVSHMKKQKLKLKDEIHDMIIEYREK | 0.536 |
| HEFRDEISVLKANNPHFDKIFEKHNQLDDDIKTAEQQNASDAEVSHMKKQKLKLKDEIHHMIIEYREK | 0.79 |
| HEFRDEISVLKANNPHFDKIFEKHNQLDDDIKTAEQQNASDAEVSHMKKQKLKLKDEIHQMIIEYREK | 1.2 |
| HEFRDEISVLKANNPHFDKIFEKHNQLDDDIKTAEQQNASDAEVSHMKKQKLKLKDEIHLMIIEYREK | 0.991 |
| HEFRDEISVLKANNPHFDKIFEKHNQLDDDIKTAEQQNASDAEVSHMKKQKLKLKDEIHVMIIEYREK | 0.267 |
| HEFRDEISVLKANNPHFDKIFEKHNQLDDDIKTAEQQNASDAEVSHMKKQKLKLKDEIHFMIIEYREK | 0.717 |
| HEFRDEISVLKANNPHFDKIFEKHNQLDDDIKTAEQQNASDAEVSHMKKQKLKLKDEIHAMIIEYREK | 1.48 |
| HEFRDEISVLKANNPHFDKIFEKHNQLDDDIKTAEQQNASDAEVSHMKKQKLKLKDEIHRMIIEYREK | 1.65 |
| HEFRDEISVLKANNPHFDKIFEKHNQLDDDIKTAEQQNASDAEVSHMKKQKLKLKDEIHKMIIEYREK | 1.51 |
| HEFRDEISVLKANNPHFDKIFEKHNQLDDDIKTAEQQNASDAEVSHMKKQKLKLKDEIHYMIIEYREK | 0.561 |
| HEFRDEISVLKANNPHFDKIFEKHNQLDDDIKTAEQQNASDAEVSHMKKQKLKLKDEIHWMIIEYREK | 0.696 |
| HEFRDEISVLKANNPHFDKIFEKHNQLDDDIKTAEQQNASDAEVSHMKKQKLKLKDEIHEMIIEYREK | 0.466 |
| HEFRDEISVLKANNPHFDKIFEKHNQLDDDIKTAEQQNASDAEVSHMKKQKLKLKDEIHCMIIEYREK | 1.18 |
| HEFRDEISVLKANNPHFDKIFEKHNQLDDDIKTAEQQNASDAEVSHMKKQKLKLKDEIHGMIIEYREK | 0.362 |
| HEFRDEISVLKANNPHFDKIFEKHNQLDDDIKTAEQQNASDAEVSHMKKQKLKLKDEIHTMIIEYREK | 0.912 |
| HEFRDEISVLKANNPHFDKIFEKHNQLDDDIKTAEQQNASDAEVSHMKKQKLKLKDEIHMMIIEYREK | 1.29 |
